Source: US20180118802A1 (published 2018)

T1: RAP-GDNF (UniProt P30533 35-353; P39905 78-211, limits assumed)
T1 construct: also called RAP-GDNF fusion
T1 sequence (looked up): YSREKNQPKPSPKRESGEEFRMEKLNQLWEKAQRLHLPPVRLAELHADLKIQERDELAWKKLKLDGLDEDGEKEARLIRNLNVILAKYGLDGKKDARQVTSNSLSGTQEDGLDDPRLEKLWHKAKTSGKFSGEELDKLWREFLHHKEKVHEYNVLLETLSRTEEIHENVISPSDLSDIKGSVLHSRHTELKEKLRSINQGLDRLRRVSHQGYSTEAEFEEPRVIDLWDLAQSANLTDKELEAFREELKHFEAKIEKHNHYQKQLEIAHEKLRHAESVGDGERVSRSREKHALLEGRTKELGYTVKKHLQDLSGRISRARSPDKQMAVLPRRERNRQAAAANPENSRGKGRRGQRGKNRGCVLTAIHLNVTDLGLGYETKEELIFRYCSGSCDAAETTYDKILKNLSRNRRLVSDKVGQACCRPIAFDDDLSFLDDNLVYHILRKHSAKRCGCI

T2: RAP d3 (human, UniProt P30533 235-353)
T2 construct: also called wild-type RAP d3
T2 sequence: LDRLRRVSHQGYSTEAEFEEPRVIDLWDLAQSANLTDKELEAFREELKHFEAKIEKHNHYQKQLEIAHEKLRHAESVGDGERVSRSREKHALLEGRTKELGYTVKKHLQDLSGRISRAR

B1: LRP2 CR89 (receptor)
chain: not shown
notes: domain: CR89; also called YVWR; not shown: N-terminal hexahistidine and S-peptide of pET30(+)a

Key:
RAP-GDNF = target: T1, RAP-GDNF; assay: solid-phase assay, RAP-GDNF coated, serial dilutions of GFRα-1 (FIG. 12)
RAP d3 [1] = target: T2, RAP d3; assay: solid-phase binding assay, CR protein coated, anti-RAP detection
Text: (§1) Alternatively, the affinity differences between MegaRAP I d3 and MegaRAP1 d3 E270K may have been insufficient to alloW the latter to predominate upon iterative panning. A double revertant, T213S, E270K, had binding behavior that was not distinguishable from MegaRAP1 d3 in our assays. […] The binding behavior of the K251E, E270K double revertant implies a strong dependence of the affinity of MegaRAP1 d3 for LRP2 CR89 on the E251K mutation. […] Therefore, the K256A mutation in MegaRAP1 d3 is a crucial determinant of the ability of this variant to discriminate between the two receptor fragments, exerting its effect by negatively impacting affinity for LRP1 CR3-5 while at the same time improving affinity for LRP2 CR89.

LRP2 CR89 [2] = target: B1; assay: as above
Text: as §1

LRP2 CR89 [3] = target: B1; assay: as above; remark: listed apart in the source
Protocol: (§2) Wells were washed with TBSTC and bound ligands detected with polyclonal anti-RAP (BP41/42, 1:1,000, BioMarin). Excess primary antibody was removed and wells washed before incubation with the secondary antibody, HRP-conjugated goat anti rabbit IgG (Bio-Rad). After washing, TMB substrate solutions (Bio-Rad) were added to detect HRP. Color development was stopped with 1N HCl. Absorption at 450 nm was measured with a microplate spectrophotometer (Molecular Devices). Data were plotted and Kd values derived by non-linear regression with the assumption of single-site binding (GraphPad Prism).
(§3) Next, the binding of RAP d3 and MegaRAP1 d3 proteins to LRP1 CR3-5 and LRP2 CR89 was assessed. […] In all cases, 10 mM EGTA prevented binding of both RAP d3 and MegaRAP1 d3 to CR proteins. Since calcium was the only divalent metal ion present in the binding buffer, this observation is consistent with both RAP d3 and MegaRAP1 d3 binding to calcium-loaded CR pairs. […] Therefore, wild-type RAP d3 and MegaRAP1 d3 have inverted binding preferences for these two receptor fragments.

LRP1 CR3-5 = target: T3, LRP1 CR3-5 (human, UniProt Q07954 852-973); assay: as above
T3 construct: range 852-973; not shown: N-terminal hexahistidine and S-peptide of pET30(+)a
Protocol: as §2, §3

RAP d3 [4] = target: T2, RAP d3; assay: as above; remark: listed apart in the source
Protocol: Solid phase binding assays—Purified, refolded CR protein (1 μg) was bound to Nunc Maxisorp™ 96-well plates in TBS pH 8 supplemented with 5 mM CaCl₂ (TBSC) overnight at 4° C. Wells were washed with TBSC and then blocked with TBSC containing 2% bovine serum albumin (BSA). RAP ligands were then incubated with the immobilized receptor at a range of concentrations for 2 hours in the above blocking buffer supplemented with 0.05% Tween-20 at room temperature. Control wells contained no added ligand. As an additional control, to determine whether the absence of calcium affected binding, 10 mM EGTA was included in the incubation medium for some samples. Wells were washed with TBSTC and bound ligands detected with polyclonal anti-RAP (BP41/42, 1:1,000, BioMarin). Excess primary antibody was removed and wells washed before incubation with the secondary antibody, HRP-conjugated goat anti rabbit IgG (Bio-Rad). After washing, TMB substrate solutions (Bio-Rad) were added to detect HRP. Color development was stopped with 1N HCl. Absorption at 450 nm was measured with a microplate spectrophotometer (Molecular Devices). Data were plotted and Kd values derived by non-linear regression with the assumption of single-site binding (GraphPad Prism).
One premise of this work was that amino acids at A, C, A′ and C′ within the calcium-binding loops of a CR pair were key determinants of binding affinity for RAP and would be similarly important for binding of RAP variants. To test this idea, mutant LRP2 CR89 were prepared in which the native, non-canonical residues at these positions were sequentially substituted with the non-native, canonical residues. As defined above, the A, C, A′, C′ string for LRP2 CR89 is YVWR. Mutants included LRP2 CR89 Y1042W (WVWR), LRP2 CR89 V1047D (YDWR), LRP2 CR89 R1088D (YVWD), LRP2 CR89 V1047D R1088D (YDWD), LRP2 CR89 Y1042W V1047D R1088D (WDWD), LRP2 CR89 Y1042W V1047D (WDWR), LRP2 CR89 Y1042W R1088D (WVWD). Binding to both RAP d3 and MegaRAP1 d3 were measured for each LRP2 CR89 mutant by solid-phase assay.

LRP2 CR89, sequence (P98164 1025-1102): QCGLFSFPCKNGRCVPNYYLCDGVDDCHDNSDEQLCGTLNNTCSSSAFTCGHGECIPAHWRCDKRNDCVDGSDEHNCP
T3 sequence (Q07954 852-973, form in doubt): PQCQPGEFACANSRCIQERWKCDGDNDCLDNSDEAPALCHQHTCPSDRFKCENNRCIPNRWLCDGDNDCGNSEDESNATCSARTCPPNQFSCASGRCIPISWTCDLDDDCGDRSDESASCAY

binding result (LRP2 CR89 [3])	Binder	further results
–	GFRα-1 (receptor) DRLDCVKASDQCLKEQSCSTKYRTLRQCVAGKETNFSLASGLEAKDECRSAMEALKQKSLYNCRCKRGMKKEKNCLRIYWSMYQSLQGNDLLEDSPYEPVNSRLSDIFRVVPFISDVFQQVEHIPKGNNCLDAAKACNLDDICKKYRSAYITPCTTSVSNDVCNRRKCHKALRQFFDKVPAKHSYGMLFCSCRDIACTERRRQTIVPVCSYEEREKPNCLNLQDSCKTNYICRSRLADFFTNCQPESRSVSSCLKENYADCLLAYSGLIGTVMTPNYIDSSSLSVAPWCDCSNSGNDLEECLKFLNFFKDNTCLKNAIQAFGNGSDVTVWQPAFPVQTTTATTTTALRVKNKPLGPAGSENEIPTHVLPPCANLQAQKLKSNVSGNTHLCISNGNYEKEGLGASS	Kd (RAP-GDNF): ~5 ng/mL
–	B1	Kd (RAP d3 [1]): > 300 nM
–	MegaRAP1 d3 A256K, E270K (ligand, not shown: small tags and cut ends, Double revertant of MegaRAP1 d3; also called MegaRAP1 A256K, E270K) LDRLRRVSHQGYTTEAKFEEPRVIDLWDLAQSANLTDKELEAFREELKYFKAKIEKHNHYQKQLEIAHEKLRHAESVGDGERVSRSREKHALLEGRTKELGYTVKKHLQDLSGRISRAR	fold loss of affinity (LRP2 CR89 [2]): 2 fold
no binding	RAP d3 H249Y (ligand, not shown: small tags and cut ends, Forward mutant of RAP d3; also called RAP H249Y) LDRLRRVSHQGYSTEAEFEEPRVIDLWDLAQSANLTDKELEAFREELKYFEAKIEKHNHYQKQLEIAHEKLRHAESVGDGERVSRSREKHALLEGRTKELGYTVKKHLQDLSGRISRAR	–
no binding	RAP d3 E251K, K270E (ligand, not shown: small tags and cut ends, Forward mutant of RAP d3; also called RAP E251K, K270E) LDRLRRVSHQGYSTEAEFEEPRVIDLWDLAQSANLTDKELEAFREELKHFKAKIEKHNHYQKQLEIAHEELRHAESVGDGERVSRSREKHALLEGRTKELGYTVKKHLQDLSGRISRAR	–
no binding	RAP d3 E251K (ligand, not shown: small tags and cut ends, Forward mutant of RAP d3; also called RAP E251K) LDRLRRVSHQGYSTEAEFEEPRVIDLWDLAQSANLTDKELEAFREELKHFKAKIEKHNHYQKQLEIAHEKLRHAESVGDGERVSRSREKHALLEGRTKELGYTVKKHLQDLSGRISRAR	–
no binding	MegaRAP1 d3 A256K (ligand, not shown: small tags and cut ends, Revertant of MegaRAP1 d3; also called MegaRAP1 A256K) LDRLRRVSHQGYTTEAKFEEPRVIDLWDLAQSANLTDKELEAFREELKYFKAKIEKHNHYQKQLEIAHEELRHAESVGDGERVSRSREKHALLEGRTKELGYTVKKHLQDLSGRISRAR	–
–	MegaRAP1 d3 E270K (ligand, not shown: small tags and cut ends, Revertant of MegaRAP1 d3; also called MegaRAP1 E270K) LDRLRRVSHQGYTTEAKFEEPRVIDLWDLAQSANLTDKELEAFREELKYFKAKIEAHNHYQKQLEIAHEKLRHAESVGDGERVSRSREKHALLEGRTKELGYTVKKHLQDLSGRISRAR	% max (LRP1 CR3-5): 85%
no binding	RAP d3 K270E (ligand, not shown: small tags and cut ends, Forward mutant of RAP d3; also called RAP K270E) LDRLRRVSHQGYSTEAEFEEPRVIDLWDLAQSANLTDKELEAFREELKHFEAKIEKHNHYQKQLEIAHEELRHAESVGDGERVSRSREKHALLEGRTKELGYTVKKHLQDLSGRISRAR	–
–	LRP2 CR89 V1047D (receptor, not shown: small tags and cut ends, also called YDWR) PTEQCGLFSFPCKNGRCVPNYYLCDGDDDCHDNSDEQLCGTLNNTCSSSAFTCGHGECIPAHWRCDKRNDCVDGSDEHNCPTHA	binding result (RAP d3 [4]): no binding
no binding	RAP d3 E217K (ligand, not shown: small tags and cut ends, Forward mutant of RAP d3; also called RAP E217K) LDRLRRVSHQGYSTEAKFEEPRVIDLWDLAQSANLTDKELEAFREELKHFEAKIEKHNHYQKQLEIAHEKLRHAESVGDGERVSRSREKHALLEGRTKELGYTVKKHLQDLSGRISRAR	–
no binding	RAP d3 K256A, K270E (ligand, not shown: small tags and cut ends, Forward mutant of RAP d3; also called RAP K256A, K270E) LDRLRRVSHQGYSTEAEFEEPRVIDLWDLAQSANLTDKELEAFREELKHFEAKIEAHNHYQKQLEIAHEELRHAESVGDGERVSRSREKHALLEGRTKELGYTVKKHLQDLSGRISRAR	–
–	LRP2 CR89 V1047D R1088D (receptor, not shown: small tags and cut ends, also called YDWD) PTEQCGLFSFPCKNGRCVPNYYLCDGDDDCHDNSDEQLCGTLNNTCSSSAFTCGHGECIPAHWRCDKDNDCVDGSDEHNCPTHA	binding result (RAP d3 [4]): no binding
–	LRP2 CR89 Y1042W (receptor, not shown: small tags and cut ends, also called WVWR) PTEQCGLFSFPCKNGRCVPNYWLCDGVDDCHDNSDEQLCGTLNNTCSSSAFTCGHGECIPAHWRCDKRNDCVDGSDEHNCPTHA	binding result (RAP d3 [4]): no binding
–	LRP2 CR89 R1088D (receptor, not shown: small tags and cut ends, also called YVWD) not shown	binding result (RAP d3 [4]): no binding
no binding	MegaRAP1 d3 K251E (ligand, not shown: small tags and cut ends, Revertant of MegaRAP1 d3; also called MegaRAP1 K251E) LDRLRRVSHQGYTTEAKFEEPRVIDLWDLAQSANLTDKELEAFREELKYFEAKIEAHNHYQKQLEIAHEELRHAESVGDGERVSRSREKHALLEGRTKELGYTVKKHLQDLSGRISRAR	–
